These results are taken from patent US20230295310A1 (ABCELLERA BIOLOGICS, published 2023).

The target of test [1] is T1, cynomolgus monkey CD3 (cynomolgus monkey, UniProt Q95LI5 22-198; Q95LI8 22-171; Q95LI7 23-181).
T1 construct: whole, on cells; CD3 on purified cynomolgus monkey CD3 pan T cells; also called cyno CD3; CD3 on cyno primary T cells
In words: flow cytometry, cyno primary T cells. The method in brief: (§1)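 25 nM Ab in FACS buffer (PBS+2% FBS), 30 min at 4° C on CD3+ cells; flow cytometry MFI normalized to isotype = FOI; cutoff ≥10 for positive.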

The target of test [2] is T2, human CD3 (human, UniProt P07766 23-207; P04234 22-171; P09693 23-182).
T2 construct: whole, on cells; also called CD3 on Jurkat cells; CD3 on human primary T cells
The experiment in a line: flow cytometry, Jurkat cells. How it is done:
(§2) Purified antibodies were confirmed to bind CD3 expressed on cells using the CytoFLEX S or LX flow cytometers (Beckman Coulter). Antibodies were diluted to 25 nM in FACS buffer (PBS+2% FBS) and were incubated with CD3-expressing cells for 30 minutes at 4° C. […] The median fluorescence intensity of the binding signal for each antibody was normalized to the isotype control to obtain a fold over isotype value. An antibody with a fold over isotype (FOI) of ≥10 was considered to be positive for binding.

The target of test [3] is T2, human CD3. The experiment in a line: flow cytometry, Jurkat cells, 25 nM antibody. How it is done: as §2
Test [4] has as its target T2, human CD3. In words: flow cytometry, human primary T cells, 25 nM antibody. How it is done: as §2
The target in test [5] is T3, cynomolgus monkey CD3 expressed on primary T cells (cynomolgus monkey, UniProt Q95LI5 22-198; Q95LI8 22-171; Q95LI7 23-181).
T3 construct: whole, on cells; CD3 complex on purified cynomolgus monkey T cells; also called cyno CD3
In words: flow cytometry, 25 nM. The method in brief:
as §1
(In general: A flow cytometer gives signals particle by particle.)

Test [6] has as its target T4, human CD3 expressed on cells (human, UniProt P07766 23-207; P04234 22-171; P09693 23-182).
T4 construct: whole, on cells; CD3 complex on Jurkat cells and on human primary T cells
The experiment in a line: flow cytometry, 25 nM. The method in brief: as §1

Where a chain is given by its changes, count along the chain named.

T2 sequence (P07766 23-207, chain 1 of 3): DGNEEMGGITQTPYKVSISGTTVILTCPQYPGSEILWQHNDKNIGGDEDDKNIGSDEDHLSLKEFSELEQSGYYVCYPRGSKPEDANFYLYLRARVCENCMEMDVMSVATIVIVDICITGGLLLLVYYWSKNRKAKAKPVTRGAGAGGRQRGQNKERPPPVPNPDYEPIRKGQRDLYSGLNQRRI
T2 sequence (P04234 22-171, chain 2 of 3): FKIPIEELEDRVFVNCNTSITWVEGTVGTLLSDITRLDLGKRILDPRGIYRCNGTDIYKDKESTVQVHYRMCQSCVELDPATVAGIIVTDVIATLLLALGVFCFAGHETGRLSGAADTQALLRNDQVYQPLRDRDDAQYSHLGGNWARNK
T2 sequence (P09693 23-182, chain 3 of 3): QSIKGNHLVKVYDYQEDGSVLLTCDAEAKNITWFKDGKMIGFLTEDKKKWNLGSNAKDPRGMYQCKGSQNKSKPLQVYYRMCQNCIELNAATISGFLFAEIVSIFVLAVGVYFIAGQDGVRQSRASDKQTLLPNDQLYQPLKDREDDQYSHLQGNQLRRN
T1 sequence (Q95LI5 22-198, chain 1 of 3): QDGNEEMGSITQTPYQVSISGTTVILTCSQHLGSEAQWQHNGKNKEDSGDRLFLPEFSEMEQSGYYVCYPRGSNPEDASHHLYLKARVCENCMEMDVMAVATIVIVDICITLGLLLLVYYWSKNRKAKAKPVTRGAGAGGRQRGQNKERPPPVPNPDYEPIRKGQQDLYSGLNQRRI
T1 sequence (Q95LI8 22-171, chain 2 of 3): as the sequence (P04234 22-171, chain 2 of 3) above, with I5V, N15K, I20V, S32T, D33N, I34N, T64A, S74N, V83L, H141R counted along it
T1 sequence (Q95LI7 23-181, chain 3 of 3): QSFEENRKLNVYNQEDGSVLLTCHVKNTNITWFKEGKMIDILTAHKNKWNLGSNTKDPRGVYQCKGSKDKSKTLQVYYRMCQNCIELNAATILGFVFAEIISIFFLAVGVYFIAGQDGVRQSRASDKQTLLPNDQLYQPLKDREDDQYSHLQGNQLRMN
T4 sequence (P07766 23-207, chain 1 of 3): as the sequence (P07766 23-207, chain 1 of 3) above
T4 sequence (P04234 22-171, chain 2 of 3): as the sequence (P04234 22-171, chain 2 of 3) above
T4 sequence (P09693 23-182, chain 3 of 3): as the sequence (P09693 23-182, chain 3 of 3) above
T3 sequence (Q95LI5 22-198, chain 1 of 3): as the sequence (Q95LI5 22-198, chain 1 of 3) above
T3 sequence (Q95LI8 22-171, chain 2 of 3): as the sequence (P04234 22-171, chain 2 of 3) above, with I5V, N15K, I20V, S32T, D33N, I34N, T64A, S74N, V83L, H141R counted along it
T3 sequence (Q95LI7 23-181, chain 3 of 3): as the sequence (Q95LI7 23-181, chain 3 of 3) above

B1: mAb 294 (antibody, V domains shown)
VH: EVQLLESGGGLVQPGGSLRLSCAASGFTFSSSVMSWVRQGPGKGLEWVSAIRGSGVYTYYADSVKGRFTISRDNSKNTLYLQMNSLRAEDTAVYYCAKKYSYYYYYMDVWGKGTTVTVSS
VL: PYELTQPLSVSVALGQTARITCGGNNIGSKDVHWYQQKPGQAPVLVIYRDSNRPSGIPERFSGSNSGNTATLTISRAQAGDEADYYCQVWDSSTAVFGGGTQLTAL
notes: VH and VL only
Turning to B1, the binding result in test [1] and in test [2] was “no binding (tested: FOI ≥10 = positive; 25 nM)” throughout.

B2: mAb 312 (antibody, V domains shown)
VH: EGQLLESGGGLVQPGGSLRLSCAASGFTFSRYAMSWIRQAPGKGLEWVSVINGSGGDKNYADSVKGRFTISRDNSKNSLYLLMNGLRVEDTAIYFCAKKFSYYYYYMDVWGKGTSVTVSS
VL: B1 VL with P1S, D31N, Y35H, D50E, E59G, I74S
notes: VH and VL only
B2: the binding result in test [1] and in test [2] was “no binding (tested: FOI ≥10 = positive; 25 nM)” throughout.

B3: mAb 311 (antibody, V domains shown)
VH: EVQLLESGGGLVQPGGSRRLSCAASGFTFSSYAMSWVRQAPGKGLEWVSVINTRGDITSYADSVKGRFTISRDNSKNTLYLQMNSLRAEDTAVYYCAKKYSYYYYYMDVWGKGTTVTVSS
VL: B1 VL with P1S, D31N, Y35H, D50E, I74S
notes: VH and VL only
Take B3: the binding result in test [1] and in test [2] was “no binding (tested: FOI ≥10 = positive; 25 nM)” each time.

B4: mAb 318 (antibody, V domains shown)
VH: B2 VH with N52D
VL: B1 VL with P1S, S29G, S93R
notes: VH and VL only
With B4, the binding result in test [1] is on record as “no binding (tested: FOI ≥10 = positive; 25 nM)”. In addition, the “Jurkat Cell Binding (FOI)” value in test [3] is 211 FOI. The “Human primary T Cell Binding (FOI)” value in test [4] worked out at 211 FOI.

B5: mAb 319 (antibody, V domains shown)
VH: B3 VH with V12L, S25T, G26E, S30R, A40S, N52S, T53G, I57N, S59Y, K99M
VL: B1 VL with P1S, D31N, Y35H, D50E, I74S
notes: VH and VL only
As to B5, the binding result in test [1] and in test [2] was “no binding (tested: FOI ≥10 = positive; 25 nM)” throughout.

B6: mAb 306 (antibody, V domains shown)
VH: EVQLLESGGGLVQPGGSLRLSCAASGFTFNSYAMSWVRQAPGRGLEWVSAISGRKSTTYYADSVKGRFTISRDNSKNTLYLQMNSLRAEDTAVYYCAKLWNYYYYYMDVWGKGTTVTVSS
VL: B1 VL with P1S
notes: VH and VL only
Consider B6, for which, in test [1], the binding result is “no binding (tested: FOI ≥10 = positive; 25 nM)”. In addition, the “Jurkat Cell Binding (FOI)” value in test [3] is 216 FOI. Besides, the “Human primary T Cell Binding (FOI)” value in test [4] was found to be 219 FOI.

B7: mAb 303 (antibody, V domains shown)
VH: EVHLLESGGGLVQPGGSLRLSCAASGFTFSSYAMNWVRQAPGKGLEWISIISGGRRSGITYYAASVKGRFTISRDNSKNTLDLQMNSLRAEDTAVYYCAKMYNYYYYYIDVWGKGTTVTVSS
VL: B1 VL with P1S, S93N
notes: VH and VL only
Regarding B7, the binding result in test [1] is “no binding (tested: FOI ≥10 = positive; 25 nM)”. Besides, the “Jurkat Cell Binding (FOI)” value in test [3] came out at 247 FOI. The “Human primary T Cell Binding (FOI)” value in test [4] is 256 FOI.

B8: mAb 297 (antibody, V domains shown)
VH: B7 VH with H3Q, I48V, S57D, G58D, D82Y
VL: B1 VL with P1S, R19K, S93N
notes: VH and VL only
On to B8, for which the binding result in test [1] is on record as “no binding (tested: FOI ≥10 = positive; 25 nM)”. Besides, in test [3], the “Jurkat Cell Binding (FOI)” value was determined as 220 FOI. Further, the “Human primary T Cell Binding (FOI)” value in test [4] worked out at 211 FOI.

B9: mAb 316 (antibody, V domains shown)
VH: B3 VH with S30R, S31T, T53G, I57D, S59N, T78I, Y80F
VL: B1 VL with P1S, S93R
notes: VH and VL only
Regarding B9, the binding result in test [1] is “no binding (tested: FOI ≥10 = positive; 25 nM)”. Also, in test [3], the “Jurkat Cell Binding (FOI)” value was found to be 253 FOI. For the same molecule, the “Human primary T Cell Binding (FOI)” value in test [4] amounted to 241 FOI.

B10: mAb 301 (antibody, V domains shown)
VH: B3 VH with N52S, T53G, I57N, S59N, D73E, T78M
VL: B1 VL with P1S, S93R
notes: VH and VL only
For the molecule B10, the binding result in test [1] is on record as “no binding (tested: FOI ≥10 = positive; 25 nM)”. Besides, in test [3], the “Jurkat Cell Binding (FOI)” value turned out to be 253 FOI. The “Human primary T Cell Binding (FOI)” value in test [4] was found to be 283 FOI.

B11: mAb 304 (antibody, V domains shown)
VH: B3 VH with N52S, T53G, I57N, S59N, D73E, T78I
VL: B1 VL with P1S, S93R
notes: VH and VL only
With B11, the binding result in test [1] is given as “no binding (tested: FOI ≥10 = positive; 25 nM)”. For the same molecule, the “Jurkat Cell Binding (FOI)” value in test [3] is 234 FOI. For the same molecule, the “Human primary T Cell Binding (FOI)” value in test [4] stood at 226 FOI.

B12: mAb 310 (antibody, V domains shown)
VH: QVQLVESGGGVVQPGRSLRLSCAASGFTFRSYGMHWVRQAPGKGLEWVTIIWYDGSKKYYADSVRGRFTISRDNSKNMLYLQMNSLRAEDTAVYYCASQEFNWNDGGFYYMDVWGKGTTVTVSS
VL: DIQLTQSPSFLSASVGDRVTITCRASQDISSYLHWCQQKPGKAPKLLIYGASTLQSGVPSRFSGSGSGKEFTLTISSLQPEDFATYYCQQLDNYPPTFGGGTKVEIK
notes: VH and VL only
Turning to B12, the binding result in test [1] and in test [2] was “no binding (tested: FOI ≥10 = positive; 25 nM)” each time.

B13: mAb 323 (antibody, V domains shown)
VH: QVQVVQSGAEVKNPGASVKVSCKASGYTFTGYYMHWVRQAPGQGLEWMGWIYPNSGRTNYAQKFQGRVTMTRDTSISTAYMELSRLRSDDTAVYYCARLEQLVFDYWGQGTLVTVSS
VL: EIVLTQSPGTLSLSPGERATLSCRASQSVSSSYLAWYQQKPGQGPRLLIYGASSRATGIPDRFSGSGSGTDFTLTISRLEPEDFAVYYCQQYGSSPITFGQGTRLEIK
notes: VH and VL only
Take B13: the binding result in test [1] and in test [2] was “no binding (tested: FOI ≥10 = positive; 25 nM)” throughout.

B14: mAb 300 (antibody, V domains shown)
VH: EVQLLESGGGLVQPGGSLRLSCAASGFTFSRYAMSWVRQAPGRGLEWVSTISGSGGRTYYVDSVKGRFTISRDNSKNTLYLQMNSLRAEDTAVYYCAKMFSYYYYYMDVWGKGTTVTVSS
VL: EIVMTQSPATLSLSPGKRATLSCRASQSVSTTYLSWYLQKPGQAPRLLIYGASTRATGIPARFSGSGSGTDFTLTISSLQPEDFAVYYCQQDYNLPPYTFGQGTKLEIK
notes: VH and VL only
In the case of B14, the binding result in test [1] is reported as “no binding (tested: FOI ≥10 = positive; 25 nM)”. Besides, the “Jurkat Cell Binding (FOI)” value in test [3] was determined as 68 FOI. Further, in test [4], the “Human primary T Cell Binding (FOI)” value came to 26.7 FOI.

B15: mAb 69 (antibody, V domains shown)
VH: QMLLVESGGGVVQPGRSLTLSCAASGFTFRSYGMHWVRQAPGRGLEWVAIIWYDGSTEYYADSVKGRFTISRANSKNMLYLQMNSLRAEDTAVYYCAAFDYTNSFDIWGQGTMVTVSS
VL: DIVVTQTPLSSPVTLGQPASISCRSSQRFVHSDGNTYLSWLQQRPGQPPRLLIYKISNRISGVPDRFSGSGAGTDFKLKISRVEAEDVGIYYCMQATQFPYTFGQGTKLEIK
B15: the “Cyno primary T Cell Binding (FOI)” value in test [5] was found to be 245 FOI. Besides, in test [6], the “Human primary T Cell Binding (FOI)” value is 123 FOI and the “Jurkat Cell Binding (FOI)” value worked out at 145 FOI.

B16: mAb 324 (antibody, V domains shown)
VH: QVQVVQSGAEVKKPGASVKVSCKTSGYTFTDYYIHWVRQAPGQGLEWMGWIYPKSGRTDNAQNFKGRVAMTRDTSINTAYLELNRLRSDDTAIYYCARLEELVFDYWGQGTLVTVSS
VL: DIQMTQSPSSVSASVGDRVTITCRASQVISRWLAWYQLKPGKAPKLLIYEASSLQSWVPSRFSGSGSGTDFTLTISSLQPEDFATYYCQQANSFPWTFGQGTKVEIK
As to B16, the binding result in test [1] and in test [2] was “no binding (tested: FOI ≥10 = positive; 25 nM)” throughout.

B17: mAb 325 (antibody, V domains shown)
VH: B16 VH with Y32Q, N63K, L81M, N84S, R85S, I93T
VL: not shown
Consider B17, for which the binding result in test [1] and in test [2] was “no binding (tested: FOI ≥10 = positive; 25 nM)” throughout.
